Laboratory results taken from article PMC11180167.

How the values were obtained:
[1] = target: cardiac muscle ryanodine receptor RyR2 in porcine cardiac SR membranes (pig (endogenous in porcine cardiac SR membranes)); assay: co-sedimentation; cardiac SR membranes (0.12 mg/mL) incubated 90 min at 37 °C with 1-60 nM AF488-FKBP12.6 in 150 mM KCl, 20 mM K-PIPES pH 7.0, 5 mM GSH, 0.1 mg/ml BSA, 1 mM EGTA, 65 µM CaCl2 (30 nM free Ca2+); non-specific binding with 20 µM tacrolimus; bound and free separated at 100,000 x g for 25 min; fluorescence of the pellet; Kd from Hill fit, n = 5
[2] = target: skeletal muscle ryanodine receptor RyR1 in porcine skeletal SR membranes (pig (endogenous in porcine skeletal SR membranes)) (UniProt P16960); assay: co-sedimentation; skeletal SR membranes (0.02 mg/ml) incubated 90 min at 37 °C with 1-60 nM AF488-FKBP12.6 in 150 mM KCl, 20 mM K-PIPES pH 7.0, 5 mM GSH, 0.1 mg/ml BSA, 1 mM EGTA, 65 µM CaCl2 (30 nM free Ca2+); non-specific binding with 5 µM unlabeled FKBP12.6; bound and free separated at 100,000 x g for 25 min; fluorescence of the pellet; Kd from Hill fit, n = 3
[3] = target: ryanodine receptor 1 (RyR1) in porcine skeletal SR membranes (pig (endogenous in porcine skeletal muscle SR)) (UniProt P16960)
[4] = target: ryanodine receptor 1 (RyR1) in porcine skeletal SR membranes (pig (endogenous in porcine skeletal muscle SR)) (UniProt P16960); assay: co-sedimentation; 1-60 nM AF488-FKBP12.6 with SR membranes (0.02 mg/ml skeletal, 0.12 mg/mL cardiac), 90 min at 37 °C, 150 mM KCl, 20 mM K-PIPES pH 7.0, 5 mM GSH, 0.1 mg/ml BSA, 30 nM free Ca2+; bound and free separated at 100,000 x g; non-specific binding with 5 µM unlabeled FKBP12.6 (skeletal) or 20 µM tacrolimus (cardiac); bound AF488 read by fluorescence

Substance | Kd [1] [nM] | Kd [2] [nM] | [^3H]ryanodine binding as an index of channel activity, 800 nM CaM, 30 nM Ca2+: increase [3] [fold] | Kd [4] [nM]
AF488-labeled Q65C FKBP12.6 (null-cysteine background) (natural protein) | 2.3 | 3.9 |  | 
unlabeled WT-CaM (from UniProt P0DP23 1-149) (natural protein) |  |  | 20 | 
AF488-T6C-FKBP12.6 (natural protein) |  |  |  | 7.3
AF488-labeled R49C FKBP12.6 (null-cysteine background) (natural protein) | 3.6 | 6.4 |  | 
AF488-G1C-FKBP12.6 (natural protein) |  |  |  | 12.6
AF488-labeled E32C FKBP12.6 (null-cysteine background) (natural protein) | 1.6 | 4.9 |  | 

The next lines start with the values.

Kd [1] [nM] | Kd [2] [nM] | [^3H]ryanodine binding as an index of channel activity, 800 nM CaM, 30 nM Ca2+: increase [3] [fold] | Kd [4] [nM] | Substance
1.9 | 5.8 |  |  | AF488-labeled T85C FKBP12.6 (null-cysteine background) (natural protein)
3.7 | 4.7 |  |  | AF488-labeled K44C FKBP12.6 (null-cysteine background) (natural protein)
3.2 | 3.7 |  |  | AF488-labeled T14C FKBP12.6 (null-cysteine background) (natural protein)
2.7 |  |  |  | AF488-labeled T6C FKBP12.6 (null-cysteine background) (natural protein)
5 |  |  |  | AF488-labeled G1C FKBP12.6 (null-cysteine background) (natural protein)
